Assay [1] deals with T1, activin-A (UniProt P08476 311-426, [125I] label in the crosslinking assays (site not stated)).
T1 construct: The ~14 kDa monomer implies the processed mature chain; Unlabelled protein was used in the luciferase assays; also called bA-bA
T1 sequence (looked up): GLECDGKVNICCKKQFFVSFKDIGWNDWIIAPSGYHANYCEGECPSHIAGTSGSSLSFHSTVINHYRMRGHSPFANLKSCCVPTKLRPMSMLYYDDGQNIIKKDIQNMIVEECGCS
The assay can be described thus: activin crosslinking assays. The method, then:
Cells were transfected with […] DNA per well with ratios of 0.5 mg TbRII/0.5 mg ALK5/3 mg Cripto unless otherwise indicated for [¹²⁵I]-TGF-b1 crosslinking or […] ActRII/1 mg Cripto/1 mg vector for [¹²⁵I]activin-A crosslinking. As necessary, empty vector was used to keep the amount of DNA transfected constant at […]. […] Cells were then rinsed in HDB, incubated in HDB containing 0.5 mM disuccinylsuberate (DSS) for 30 min on ice, rinsed in HDB and then solubilized in lysis buffer (TBS containing 1% NP-40, 0.5% deoxycholate and 2 mM EDTA) for 1 h on ice. Solubilized, crosslinked complexes were incubated for approximately 24 h at 4° C. with […] of either anti-FLAG (M2), anti-His or anti-myc antibodies. Immune complexes were precipitated using protein-G agarose and analyzed using SDS-PAGE and autoradiography.

In assay [2] the target is T1, activin-A. The assay can be described thus: not described at this place.

B1: Cripto DEGF mutant (receptor)
chain: FEFGPVAGRDLAIRDNSIWDQKEPAVRDRSFQFVPSVGIQNSKEHCGSILHGTWLPKKCSLCRCWHGQLHCLPQTFLPGCD
modifications: C-terminal GPI anchor
In the case of B1, the binding result with activin-A [1] is “no binding”.

B2: Cripto EGF1•2mCFC mutant (N69G, T72A, R88G, E91G, H104G, W107G) (receptor)
chain: FEFGPVAGRDLAIRDNSIWDQKEPAVRDRSFQFVPSVGIQNSKSLNKTCCLGGGACILGSFCACPPSFYGGNCGHDVRKEHCGSILGGTGLPKKCSLCRCWHGQLHCLPQTFLPGCD
modifications: C-terminal GPI anchor
For the molecule B2, the binding result with activin-A [2] is listed as “no binding”.

(Values after patent US20110009319A1 (RESEARCH DEVELOPMENT FOUNDATION, published 2011).)
